Assay results published in patent US20260265360A1, “USE OF ANTI-FAM19A5 ANTAGONISTS FOR TREATING HEARING DISORDERS” (NEURACLE SCIENCE CO., LTD., priority 2023, published 2026).

What was measured:
Type in all cases: binding
FAM19A5 mutants M1 to M8 [1] = target: T1, FAM19A5 mutants M1 to M8 (Homo sapiens, UniProt Q7Z5A7); assay: Epitope mapping ELISA with FAM19A5 mutants M1-M8
T1 construct: made in house; host or cells: phage display with helper phage
Experimental: (§1) To further characterize the binding epitopes of the anti-FAM19A5 antibodies disclosed in the present disclosure, the amino acid sequences for the different FAM19 family members (i.e., FAM19A1-5) were aligned. […] The amino acid sequences of these regions were replaced with the consensus sequence of the corresponding regions for the FAM19A1-4 proteins. See Table 13 (the mutated amino acid residues are bolded and underlined).
(§2) The mutant FAM19A5-expressing phages were prepared as follows. To prepare the media for phage culture, 55.6 ml of 2M Glucose (D-(+)-Glucose, Sigma), 5 mL of 1M MgCl2 (Magnesium chloride, Junsei) 1 mL of 34 mg/mL chloramphenicol (Sigma) were added to 2×YT media. Colonies obtained through mono-phage ELISA were selected and placed in 5 mL of prepared media (2×YT-GMC) to be cultured for 16 hours at 37° C. with shaking incubator (VS-8480, Vision). 100 μL of each culture was transferred to 10 mL 2×YT-GMC individually which were cultured at 37° C. in the incubator until detection value at O.D. 600 nm reached 0.5. Once detection value has reached 0.5 at O.D. 600 nm, 5 mL of each culture were obtained as samples to be infected. Following sample preparation, 50 μL of […] was added to individual samples then incubated at 37° C. without shaking for 30 minutes and with shaking for additional 30 minutes. Individual cultures were centrifuged for 15 minutes at 3,850 rpm using Micro centrifuge (Micro12, Hanil). The supernatants of centrifuged cultures were removed to be kept separate and replaced with 5 mL of 2×YT media containing 1 mL of IM IPTG (AG Scientific), 5 mL of 1M MgCl2.1 ml of 70 μg/μL kanamycin (Biopure) and 1 mL of Chloramphenicol. The resulting pellets were dispersed thoroughly in newly added media followed by incubation at 30° C. for 16 hours with stirring.

FAM19A5 antigen = FAM19A5 antigen (Homo sapiens, UniProt Q7Z5A7); assay: Cross-competition two-site sandwich ELISA; conditions: antibodies 1-65, P2-A03, P2-F11, 13B4, 2-13, 3-2; cross-competition = S/N ratio lower than 2
Chain of FAM19A5 antigen (Q7Z5A7 44-132): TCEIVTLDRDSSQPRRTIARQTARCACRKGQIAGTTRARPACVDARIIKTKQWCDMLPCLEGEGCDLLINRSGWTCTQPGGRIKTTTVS
Experimental: The term “S/N” refers to the signal to noise ratio, which is measured as follows: [O.D. of 10 ng/ml antigen]/[O.D. of 0 ng/ml antigen].
Next, a two-site sandwich ELISA was used as described below to assess whether the different anti-FAM19A5 antibodies with similar binding epitopes cross-compete with each other.
First, the indicated anti-FAM19A5 antibodies were diluted in 1×PBS to a concentration of 10 μg/mL. The diluted anti-FAM19A5 antibodies (10 μg/mL in 1×PBS) (“capture antibody”) were used to coat the 96-well plates (100 μL/well) at 37° C. for approximately 1 hour. After the incubation, the plates were washed with the washing buffer (0.01% Tween-20/PBS; also called 0.01% PBST) for a total of five washes, blocked with the blocking solution (5% BSA/PBS; also called 5% PBSA) (250 μL/well) for one hour at 37° C., and then washed again. Next, 100 μg/mL of the FAM19A5 antigen (diluted in PBS containing 5% BSA, 0.01% Tween-20; also called 5% PBSAT; “diluent buffer) was added to each of the wells, and the 96-well plates were incubated for 2 hours at 37° C. After the incubations, the plates were washed using 0.01% PBST for a total of five washes. After the final wash, the indicated biotinylated anti-FAM19A5 antibodies (“detection antibody”) (diluted to lug/mL in 5% PBSAT) were added to the relevant wells (100 μL volume) and the plates were incubated for an additional 1 hour at 37° C. Afterwards, the plates were washed again with 0.01% PBST (five total washes). Next, 100 μL of the diluted (1/2000 in 5% PBSAT) Streptavidin-HRP (1 mg/mL, Sigma, USA) was added to the wells, and the plates were incubated for 30 minutes at room temperature. The plates were then washed and treated with 100 μL of the TMB substrate ([…], Thermo Fisher Scientific). After an additional 30-minute incubation at room temperature, the color change reaction was induced by the addition of the TMB substrate. This reaction was stopped using 50 μL of sulfuric acid (2N H2SO4), and the extent of color change was detected via absorption at 450 nm with reference wavelength at 620 nm using a 96 well microplate reader (Molecular Device).

FAM19A5 mutants M1 to M8 [2] = target: T2, FAM19A5 mutants M1 to M8 (Homo sapiens, UniProt Q7Z5A7, D109K/G107E/I112P/L110T/N113D/R114N); assay: Epitope mapping ELISA with FAM19A5 mutants M1-M8
T2 construct: made in house; host or cells: phage display with helper phage
T2 sequence (Q7Z5A7 26-125 isoform Q7Z5A7-2 G100E/D102K/L103T/I105P/N106D/R107N): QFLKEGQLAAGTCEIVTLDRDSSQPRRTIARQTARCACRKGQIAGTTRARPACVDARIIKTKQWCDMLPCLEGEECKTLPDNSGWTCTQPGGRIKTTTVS
Experimental: as §1, §2

T1 sequence (Q7Z5A7 with tags, fused parts or gaps isoform Q7Z5A7-2, change not shown): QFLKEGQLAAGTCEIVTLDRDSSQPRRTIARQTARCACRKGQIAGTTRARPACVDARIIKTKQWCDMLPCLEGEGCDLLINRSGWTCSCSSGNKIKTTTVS

| Molecule | binding to FAM19A5 mutant M8 (FAM19A5 mutants M1 to M8 [1]) | cross-competition with the other anti-FAM19A5 antibodies (FAM19A5 antigen) | binding to FAM19A5 mutant M7 (FAM19A5 mutants M1 to M8 [2]) |
| --- | --- | --- | --- |
| P2-A03: anti-FAM19A5 antibody; VH SEQ ID NO: 163, VL SEQ ID NO: 174 (antibody, V domains shown, P2-A03 VH; P2-A03 VL) VH: QSVEESGGRLVTPGTPLTLTCTVSGFSLNNYDMSWVRQAPGKGLEYIGFMDTDGSAYYATWAKGRFTISRTSTTVDLKMTSPTTEDTATYFCARRGSSYYGGIDIWGPGTPVTVSL VL: ELDLTQTPASVSEPVGGTVTIKCQASQSIGGNLAWYQQKPGQPPKLLIYRASTLASGVPSRFKGSGSGTDFTLTISDLECADAATYYCQSPAYDPAAYVGNAFGGGTELEIL | failed to bind | cross-competed with one another |  |
| P1-F02: anti-FAM19A5 antibody; VH SEQ ID NO: 161, VL SEQ ID NO: 172 (antibody, V domains shown, P1-F02 VH; P1-F02 VL) VH: QSLEESGGRLVTPGTPLTLTCTASGFSLSNYYMGWVRQAPGEGLEWIGIIYASGSTYYASWAKGRFTISKTSTTVDLKMTSLTTEDTATYFCARIDIGVGDYGWAYDRLDLWGQGTLVTVSS VL: ELDMTQTPPSLSASVGETVRIRCLASEDIYSGISWYQQKPGKPPTLLIYGASNLESGVPPRFSGSGSGTDYTLTIGGVQAEDAATYYCLGGYSYSSITFGAGTNVEIK | failed to bind |  |  |
| P2-A01: anti-FAM19A5 antibody; VH SEQ ID NO: 162, VL SEQ ID NO: 173 (antibody, V domains shown, P2-A01 VH; P2-A01 VL) VH: QEQLVESGGRLVTPGTPLTLSCTASGFFLSGYYMSWVRQAPGKGLEWIGIIYPSGSTDYASWAKGRFTISKTSTTVDLKITTPTTEDTATYFCARVAGYVGYGYETFFDIWGPGTLVTVSL VL: ELVMTQTPPSLSASVGETVRIRCLASEDIYSGISWYQQKPGKPPTLLIYGASNLESGVPPRFSGSGSGSDYTLTIGGVQAEDAATYYCLGGVTYSSTGTHLTFGAGTNVEIK | failed to bind |  |  |
| P2-F07: anti-FAM19A5 antibody; VH SEQ ID NO: 164, VL SEQ ID NO: 175 (antibody, V domains shown, P2-F07 VH; P2-F07 VL) VH: QSLEESGGRLVTPGTPLTLTCTASGFSLSSYYMNWVRQAPGKGLEWIGIIYPSGTTYYAGWAKGRFTISKTSTTVDLKITSPTSEDTATYFCARTVSGYFDIWGPGTLVTVSL VL: ELDLTQTPPSLSASVGGTVTINCLASEDIYSALAWYQQKPGKPPTLLISGTSNLESGVPPRFSGSGSGTDYTLTIGGVQAEDAATYFCQGYSSYPLTFGAGTNVEIK | failed to bind |  |  |

Other lines, results leading:

| binding to FAM19A5 mutant M8 (FAM19A5 mutants M1 to M8 [1]) | cross-competition with the other anti-FAM19A5 antibodies (FAM19A5 antigen) | binding to FAM19A5 mutant M7 (FAM19A5 mutants M1 to M8 [2]) | Molecule |
| --- | --- | --- | --- |
| failed to bind |  |  | P1-A08: anti-FAM19A5 antibody; VH SEQ ID NO: 160, VL SEQ ID NO: 171 (antibody, V domains shown, P1-A08 VH; P1-A08 VL) VH: QSLEESGGRLVTPGTPLTLTCTASGFSLSTYYMSWVRQAPGKGLEWIGIVYPSGTTYYANWAKGRFTISTASTTVDLMITSPTTEDTATYFCARGDSFGYGLWGPGTLVTVSS VL: ELVLTQSPSVQVNLGQTVSLTCTADTLSRSYASWYQQKPGQAPVLLIYRDTSRPSGVPDRFSGSSSGNTATLTISGAQAGDEADYYCATSDGSGSNYQYVFGGGTQLTVT |
| failed to bind |  | reduced binding | 13F7: anti-FAM19A5 antibody; VH SEQ ID NO: 157, VL SEQ ID NO: 168 (antibody, V domains shown, 13F7 VH; 13F7 VL) VH: QVQLQEWGAGLLKPSETLSLTCAINAESFNGYSWTWIRQTPGKGLEWIGEISHFGSANYNPSLKSRATISADKSKNQFSLKLTSVTAVDTAVYYCARALRGTYSRFYYGMDVWGQGTTVTVSS VL: DIVMTQTPLSLPVAPGEPASISCRSSQSLLHSNGYNYLDWYVQKPGQPPQLLIYLGSNRASGVPDRFSGSGSGTDFTLKISRVEAEDVGVYYCMQARQTPLTFGGGTKVEIK |
| failed to bind | cross-competed with one another |  | P2-F11: anti-FAM19A5 antibody; VH SEQ ID NO: 165, VL SEQ ID NO: 176 (antibody, V domains shown, P2-F11 VH; P2-F11 VL) VH: QEQLVESGGRLVTPGTTLTLTCTVSGFSLSSYGVSWVRQAPGKGLEWIGYIANNYNPHYASWAKGRFTISKTSSTTVDLKMTSLTTEDTATYFCARDNYGMDPWGPGTLVTVSS VL: ELDLTQTPSSVSAAVGGTVTINCQASQSVYNNKNLAWYQQKPGQPPKLLIYAASTLASGVSSRFKGSGSGTQFTLTISDVQCDDAATYYCQGEFSCSSADCNAFGGGTELEIL |
| failed to bind |  | reduced binding | 15A9: anti-FAM19A5 antibody; VH SEQ ID NO: 158, VL SEQ ID NO: 169 (antibody, V domains shown, 15A9 VH; 15A9 VL) VH: QVQLQESGPGLVKPSETLSLTCTVSGGSISSYYWSWIRQPPGKGLEWIGYIYPSGSTNYNPSLKSRVTISVDTSKNQFSLNLKSVTAVDTAVYYCARVNPFGYYYAMDVWGQGTTVTVSS VL: DIQMTQSPSSLSASVGDRITISCRASQSISTSLNWYQQTPGKAPRLLIYGASTLQSGVPSRFSGGGSGTDFSLTITSLQPEDFATYYCQESASIPRTFGQGTKLDIK |
